Where “and” joins values, the source holds several entries; their conditions need not be identical. Identical values can stand only once.

As a reminder, the stoichiometry N is the number of molecules, sites or subunits per partner or assembly.

In data set [1] the target is recombinant TC-2Δ11 deletion mutant (rTC-2Δ11) (Trichomonas vaginalis) (UniProt A2FXT2). Put plainly: SEC; analytical SEC, Superdex 200 pg HiLoad 26/600, 5 mg protein loaded, 50 mM Tris-HCl pH 8.0, 100 mM NaCl, 0.02% NaN3, room temperature (23-25°C); samples stored 1 month at 4°C. A general note: In gel filtration, larger molecules generally elute earlier.
The target is the same in data set [2]. Put plainly: SEC; analytical SEC, Superdex 200 pg HiLoad 26/600, 5 mg protein loaded, 50 mM Tris-HCl pH 8.0, 100 mM NaCl, 0.02% NaN3, room temperature (23-25°C); samples stored 3 months at 4°C.
Data set [3] deals with A2FXT2. Put plainly: SEC; analytical SEC, Superdex 200 pg HiLoad 26/600, 5 mg protein loaded, 50 mM Tris-HCl pH 8.0, 100 mM NaCl, 0.02% NaN3, room temperature (23-25°C); samples stored 1 month at 4°C.
Data set [4] concerns the molecule itself. The data set is described as above.
Data set [5] concerns the molecule itself. Put plainly: SEC; analytical SEC, Superdex 200 pg HiLoad 26/600, 5 mg protein loaded, 50 mM Tris-HCl pH 8.0, 100 mM NaCl, 0.02% NaN3, room temperature (23-25°C); samples stored 3 months at 4°C.

Take “recombinant TC-2Δ11 deletion mutant (rTC-2Δ11) (from UniProt A2FXT2 12-91) (domain or fragment)”: in data set [1], the Area (%) of the dimer peak turned out to be 19.5% and the stoichiometry N turned out to be 2. Moreover, in data set [2], the Area (%) of the dimer peak stood at 25.8% and the stoichiometry N is 2.

B1: recombinant wild-type trichocystatin-2 (rTC-2) (natural protein)
chain: MSCGGGCCCGAAKPANVQDEHVIQAFKDAIALGNQKNGTTLEYIQLLSATQKVVSGYIFEGVVKTNDGDYKVKIWCKPGNTEKELQLFEKA
notes: trichocystatin-2 (TC-2), Trichomonas vaginalis, TrichDB TVAG_272260; 10-kDa cystatin of the stefin type; the TC-2 gene cloned in pCold I as in Puente-Rivera et al., 2014; No tag removal is described; Mixture of monomer, dimer and higher forms in SEC
B1 displayed an Area (%) of the peak of high molecular weight aggregates in data set [3] of 2.2%. Also, the “stoichiometry N” value was 2 in data set [4]; 2 and 4 in data set [5].

For the origin of these results see publication PMC11959277, “Trichocystatin-2 from Trichomonas vaginalis: role of N-terminal cysteines in aggregation, protease inhibition, and trichomonal cysteine protease-dependent cytotoxicity on HeLa cells” (Frontiers in Parasitology, 2025).
